Experiments:
[1] = molecular target: PEDV S-Trimer (trimerized PEDV spike protein, 2P-stabilised, residues 1-1,319 with C-terminal GCN4 trimerization motif) (porcine epidemic diarrhea virus (PEDV)); assay: SEC; purified protein on Superose 6 increase 10/300 GL, 20 mM HEPES pH 7.6, 150 mM NaCl; single peak compared with the 669 kDa standard
[2] = molecular target: TGEV S-Trimer (trimerized TGEV spike protein, 2P-stabilised, residues 1-1,388 with C-terminal GCN4 trimerization motif) (transmissible gastroenteritis virus (TGEV)); assay: as above

Substance: PEDV S-Trimer (trimerized PEDV spike protein, 2P-stabilised, residues 1-1,319 with C-terminal GCN4 trimerization motif) (natural protein)
- stoichiometry N [1]: 3

Substance: TGEV S-Trimer (trimerized TGEV spike protein, 2P-stabilised, residues 1-1,388 with C-terminal GCN4 trimerization motif) (natural protein)
- stoichiometry N [2]: 3

— publication PMC12645917
